From patent US20080182978A1, “ANTI-NGF ANTIBODIES AND METHODS USING SAME” (RINAT NEUROSCIENCE CORP, priority 2002, published 2008)

Biological target: human NGF (Homo sapiens, UniProt P01138)
Assay: Mouse E13.5 trigeminal neuron survival assay, human NGF
Format: cell-based
Details: 0.4 ng/ml human NGF (saturating); 0.00128-20 nM
Description: The ability of Fab E3 or full antibody E3 to block NGF activity was evaluated by measurement of the capacity of the antibody to inhibit NGF-dependent survival of mouse E13.5 trigeminal neurons in vitro. The trigeminal ganglion is comprised of cutaneous sensory neurons that innervate the facial region. The survival of mouse E13.5 trigeminal neurons is a sensitive assay to evaluate the NGF-blocking activity of anti-NGF antagonist antibodies because NGF is required to support survival of these neurons. For example, at saturating concentrations of NGF, the survival is close to 100% by 48 hours in culture. By contrast, less than 5% of the neurons survive by 48 hours in absence of NGF.
The survival assay was conducted as follows: time-mated pregnant Swiss Webster female mice were euthanized by CO2 inhalation. The uterine horns were removed and the embryos at embryonic stage E13.5 were extracted and decapitated. The trigeminal ganglia were dissected using electrolytically sharpened tungsten needles. The ganglia were then trypsinized, mechanically dissociated and plated at a density of 200-300 cells per well in defined, serum-free medium in 96-well plates coated with poly-L-ornithine and laminin.
After 48 hours in culture, the cells were subjected to an automated immunocytochemistry protocol performed on a Biomek FX liquid handling workstation (Beckman Coulter) as follows: fixation using 4% formaldehyde, 5% sucrose, and PBS; permeabilization using 0.3% Triton X-100 in PBS); blocking of unspecific binding sites using 5% normal goat serum, 0.11% BSA in PBS; and sequential incubation with a primary and secondary antibodies to detect neurons. The primary antibody was rabbit polyclonal antibody against the protein gene product […] (PGP9.5, Chemicon), an established neuronal phenotypic marker. The secondary antibody was Alexa Fluor 488 goat anti-rabbit (Molecular Probes), together with the nuclear dye Hoechst 33342 (Molecular Probes) to label the nuclei of all the cells present in the culture. […]

Sequence of human NGF (P01138 122-241): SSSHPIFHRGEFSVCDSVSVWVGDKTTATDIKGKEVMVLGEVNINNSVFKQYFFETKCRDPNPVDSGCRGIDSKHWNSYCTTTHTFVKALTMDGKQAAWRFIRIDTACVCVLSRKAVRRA

B1: E3: humanized, affinity matured anti-NGF antagonist antibody; variable regions SEQ ID NO:1 and 2; human IgG2a (A330P331 to S330S331), kappa (antibody, V domains shown)
VH: QVQLQESGPGLVKPSETLSLTCTVSGFSLIGYDLNWIRQPPGKGLEWIGIIWGDGTTDYNSAVKSRVTISKDTSKNQFSLKLSSVTAADTAVYYCARGGYWYATSYYFDYWGQGTLVTVS
VL: DIQMTQSPSSLSASVGDRVTITCRASQSISNNLNWYQQKPGKAPKLLIYYTSRFHSGVPSRFSGSGSGTDFTFTISSLQPEDIATYYCQQEHTLPYTFGQGTKLEIKRT
modifications: human IgG2a constant (A330S/P331S) and kappa constant missing
inhibition of NGF-dependent survival compared with antibody 911 and trkA immunoadhesin: blocked NGF significantly better than either mouse monoclonal anti-NGF antibody 911 or the trkA immunoadhesin
